Laboratory results published in article PMC4313936, “N-Terminal and C-Terminal Domains of Calmodulin Mediate FADD and TRADD Interaction” (PLoS ONE, 2015).

Target: T1, His-CaM (native, Xenopus laevis) (Xenopus laevis, UniProt P0DP33 1-149)
T1 construct: calmodulin, Xenopus laevis, plasmid pET-15b-CaM [41]; also called native untreated CaM; recombinant His-CaM; source: E. coli BL21 (DE3), purified as previously described [8]
Assay: pull-down; GST proteins (5 μg) bound to glutathione-sepharose beads incubated with soluble recombinant CaM proteins (His-CaM forms, no-tagged wild-type CaM, Met-to-Leu mutants); 10 mM potassium phosphate pH 7.0, 100 mM KCl, 1% Brij; 2 mM Ca2+ or EGTA in Fig. 2E; western blot with CaM antibody
Conditions: both partners purified

B1: GST-TRADD R235A (natural protein)
chain: MAAGQNGHEEWVGSAYLFVESSLDKVVLSDAYAHPQQKVAVYRALQAALAESGGSPDVLQMLKIHRSDPQLIVQLRFCGRQPCGRFLRAYREGALRAALQRSLAAALAQHSVPLQLELRAGAERLDALLADEERCLSCILAQQPDRLRDEELAELEDALRNLKCGSGARGGDGEVASAPLQPPVPSLSEVKPPPPPPPAQTFLFQGQPVVNRPLSLKDQQTFARSVGLKWRKVGASLQRGCRALRDPALDSLAYEYEREGLYEQAFQLLRRFVQAEGRRATLQRLVEALEENELTSLAEDLLGLTDPNGGLA
notes: TRADD, human, point mutant of GST-TRADD; also called R235A TRADD mutant; source: E. coli BL21 (DE3)
**Q.** Does B1 bind?
**A.** binds
